Results reported in patent US8580267B2, “Immunocytokines for tumour therapy with chemotherapeutic agents” (Philogen S.p.A., priority 2008, dated 2013).

Key:
TNC-A1 = target: T1, TNC-A1 (Homo sapiens, UniProt P24821); assay: immunoreactivity after radiolabelling on TNC-A1-Sepharose resin; type: binding; conditions: radiolabelled F16-IL2 on TNC-A1-Sepharose resin
T1 construct: loading a sample of radiolabelled F16-IL2 onto TNC-A1-Sepharose resin
T1 sequence (P24821 1076-1165 limits assumed): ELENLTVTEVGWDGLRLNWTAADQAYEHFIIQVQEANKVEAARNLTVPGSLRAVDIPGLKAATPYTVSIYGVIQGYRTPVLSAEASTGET
Experimental: (§1) The in vivo targeting performance of F16-IL2 was evaluated by quantitative biodistribution analysis. […] Antibody immunoreactivity after labelling was evaluated by loading a sample of radiolabelled F16-IL2 onto TNC-A1-Sepharose resin, followed by radioactive counting of the flow-through and of the eluate fractions. Immunoreactivity, defined as the ratio between the counts of the eluted protein and the sum of the counts of the eluted and flow-through fractions, was 84%. Mice were sacrificed 24 hours after injection of F16-IL2 (10 μg, 3.6 μCi per mouse). Organs were weighed and radioactivity was counted with a Packard Cobra gamma counter. Radioactivity content of representative organs was expressed as the percentage of the injected dose per gram of tissue (% ID/g).

subcutaneous U87 tumours = assay: quantitative biodistribution analysis in mice bearing subcutaneous U87 tumours; type: in vivo, BALB/c nude mice; conditions: radioiodinated F16-IL2 i.v., 24 h after injection
Experimental: as §1

[1] = system: subcutaneous U87 glioblastoma; assay: therapy study in subcutaneous glioma mouse model; conditions: for effect on tumour growth: five administrations days 12-24, F16-IL2 20 μg i.v., temozolomide 0.525 mg i.p., temozolomide result by day 30
Experimental: Subcutaneous glioblastoma bearing mice were obtained by a s.c. flank injection of 5×10^6 U87 cells in 8-week old female BALB/c nude mice [66]. Twelve days after tumour cell implantation, when tumours had reached a size of 250-300 mm^3, mice were staged to maximize uniformity among the groups (n=5).
(§2) One group was injected i.v. (lateral tail vein) with 20 μg of F16-IL2 (corresponding to 6.6 μg of IL2) in a total volume of 100 μl PBS solution (Phosphate Buffer Saline), one was injected i.p. with 0.525 mg of temozolomide (corresponding to 75 mg/m^2) in a total volume of 150 μl saline 10% DMSO solution, a third group received both the i.v. injection of 20 μg F16-IL2 and the i.p. of 0.525 mg temozolomide, finally, the control group was injected i.p. with 150 μl of saline 10% DMSO.
(§3) A schedule of five total administrations was established: on days 12, 15, 18, 21, 24 from the tumour cell injection into mice (day 0).
(§4) Mice were monitored daily and tumours were measured with a digital caliper three times per week. Tumour volume was estimated using the formula: volume=length×width^2/2. Animals were sacrificed when tumours approached a volume of 3,000 mm^3 or when tumours turned necrotic and bleeding, according to the Swiss regulations and under a project license granted by the Veterinäramt des Kantons Zürich (198/2005).
Tumour volumes are shown as average ±SD or SE. Kaplan-Meier survival curves were performed to display therapeutic efficacy in the subcutaneous glioma model.

s.c. U87 tumours = assay: immunofluorescence assessment of tumour-infiltrating cells and microvascular density in subcutaneous glioma xenografts; type: in vivo, Balb/c nude mice; conditions: anti-human IL2 staining, after three injections
Experimental: To evaluate the role of inflammatory cell responses in vivo, female Balb/c nude mice bearing s.c. U87 tumours (3 mice per group) were treated on days 12, 15 and 18 after tumour cell implantation with either saline 10% DMSO (i.p.), F16-IL2 (i.v.), temozolomide (i.p.), and F16-IL2 (i.v.) plus temozolomide (i.p.). Mice were sacrificed 24 hours after the third injection, and tumours were excised and snap-frozen in OCT. […]
Sections of 10 μm thickness were treated with ice-cold acetone, rehydrated in PBS and blocked with PBS 10% donkey serum+10% goat serum. […] Bound antibody was detected with fluorescent Alexa488- or Alexa594-coupled secondary antibodies (donkey anti-rat or goat anti-rabbit, BD Biosciences Pharmingen) and DAPI in a PBS 12% BSA solution.
In each tumour section, the staining given by the primary antibodies was quantified in three representative 10× microscopic images using the ImageJ software (http://rsb.info.nih.gov/ij/).

[2] = body weight of mice in the subcutaneous glioblastoma therapy study; type: in vivo, BALB/c nude mice
Experimental: as §2, §3, §4

[3] = target: T2, extra-domain A1 of tenascin C (Homo sapiens, UniProt P24821); assay: real-time interaction analysis on a BIAcore 3000 instrument; type: binding; conditions: after affinity maturation
T2 construct: F16 is a human monoclonal antibody specific to the extra-domain A1 of tenascin C [25]
T2 sequence (P24821 1076-1165 limits assumed): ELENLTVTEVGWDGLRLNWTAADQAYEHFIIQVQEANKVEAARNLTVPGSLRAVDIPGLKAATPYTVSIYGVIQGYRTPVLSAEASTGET

A1 domain of tenascin-C = target: T3, A1 domain of tenascin-C (Homo sapiens, UniProt P24821); assay: immunohistochemistry on human glioblastoma specimens and U87 xenografts with F16; conditions: biotinylated SIP format, 2 μg/ml; patterns and intensities comparable to L19
T3 construct: from tissue; host or cells: human glioblastoma surgical specimens; U87 glioblastoma xenografts grown s.c. in nude mice
Experimental: Freshly frozen human glioblastoma tissues were received from the Neurosurgery department of Basel University Hospital, Basel, Switzerland, and were stored at −80° C.
For immunohistochemical procedures, the F16 antibody was used in biotinylated small immunoprotein (SIP) format. F16 is a human monoclonal antibody specific to the extra-domain A1 of tenascin C [25]. […] The SIP antibody format consists of a covalent homodimer in which each monomeric unit comprises a scFv fused to a human CH4 domain of the secretory isoform S2 of human IgE (as exemplified for antibody L19 in ref. [65]). This domain promotes the formation of homodimers that are further stabilized by disulfide bonds between the C-terminal cysteine residues, resulting in a 75 kDa homobivalent miniantibody. This SIP antibody was further biotinylated in order to avoid background staining given by the human endogenous IgE.
Sections of 10 μm thickness were treated with ice-cold acetone, rehydrated in TBS (50 mM Tris, 100 mM NaCl, 0.001% Aprotinin, pH 7.4) and blocked with TBS 20% fetal calf serum. Biot-(SIP) F16 antibody was added onto the sections in a final concentration of 2 μg/ml. Bound antibody was detected with streptavidin-alkaline phosphatase complex (Biospa). Fast Red (Tablets Set, Sigma) was used as phosphatase substrate and sections were counterstained with Gill's hematoxylin no. 2 (Sigma). […]

tenascin-C = tenascin-C (Homo sapiens, UniProt P24821); assay: binding of F16 with Ala to Met mutation in VH CDR1; conditions: Ala to Met in position 4 of VH CDR1
Chain of tenascin-C (P24821 23-2201): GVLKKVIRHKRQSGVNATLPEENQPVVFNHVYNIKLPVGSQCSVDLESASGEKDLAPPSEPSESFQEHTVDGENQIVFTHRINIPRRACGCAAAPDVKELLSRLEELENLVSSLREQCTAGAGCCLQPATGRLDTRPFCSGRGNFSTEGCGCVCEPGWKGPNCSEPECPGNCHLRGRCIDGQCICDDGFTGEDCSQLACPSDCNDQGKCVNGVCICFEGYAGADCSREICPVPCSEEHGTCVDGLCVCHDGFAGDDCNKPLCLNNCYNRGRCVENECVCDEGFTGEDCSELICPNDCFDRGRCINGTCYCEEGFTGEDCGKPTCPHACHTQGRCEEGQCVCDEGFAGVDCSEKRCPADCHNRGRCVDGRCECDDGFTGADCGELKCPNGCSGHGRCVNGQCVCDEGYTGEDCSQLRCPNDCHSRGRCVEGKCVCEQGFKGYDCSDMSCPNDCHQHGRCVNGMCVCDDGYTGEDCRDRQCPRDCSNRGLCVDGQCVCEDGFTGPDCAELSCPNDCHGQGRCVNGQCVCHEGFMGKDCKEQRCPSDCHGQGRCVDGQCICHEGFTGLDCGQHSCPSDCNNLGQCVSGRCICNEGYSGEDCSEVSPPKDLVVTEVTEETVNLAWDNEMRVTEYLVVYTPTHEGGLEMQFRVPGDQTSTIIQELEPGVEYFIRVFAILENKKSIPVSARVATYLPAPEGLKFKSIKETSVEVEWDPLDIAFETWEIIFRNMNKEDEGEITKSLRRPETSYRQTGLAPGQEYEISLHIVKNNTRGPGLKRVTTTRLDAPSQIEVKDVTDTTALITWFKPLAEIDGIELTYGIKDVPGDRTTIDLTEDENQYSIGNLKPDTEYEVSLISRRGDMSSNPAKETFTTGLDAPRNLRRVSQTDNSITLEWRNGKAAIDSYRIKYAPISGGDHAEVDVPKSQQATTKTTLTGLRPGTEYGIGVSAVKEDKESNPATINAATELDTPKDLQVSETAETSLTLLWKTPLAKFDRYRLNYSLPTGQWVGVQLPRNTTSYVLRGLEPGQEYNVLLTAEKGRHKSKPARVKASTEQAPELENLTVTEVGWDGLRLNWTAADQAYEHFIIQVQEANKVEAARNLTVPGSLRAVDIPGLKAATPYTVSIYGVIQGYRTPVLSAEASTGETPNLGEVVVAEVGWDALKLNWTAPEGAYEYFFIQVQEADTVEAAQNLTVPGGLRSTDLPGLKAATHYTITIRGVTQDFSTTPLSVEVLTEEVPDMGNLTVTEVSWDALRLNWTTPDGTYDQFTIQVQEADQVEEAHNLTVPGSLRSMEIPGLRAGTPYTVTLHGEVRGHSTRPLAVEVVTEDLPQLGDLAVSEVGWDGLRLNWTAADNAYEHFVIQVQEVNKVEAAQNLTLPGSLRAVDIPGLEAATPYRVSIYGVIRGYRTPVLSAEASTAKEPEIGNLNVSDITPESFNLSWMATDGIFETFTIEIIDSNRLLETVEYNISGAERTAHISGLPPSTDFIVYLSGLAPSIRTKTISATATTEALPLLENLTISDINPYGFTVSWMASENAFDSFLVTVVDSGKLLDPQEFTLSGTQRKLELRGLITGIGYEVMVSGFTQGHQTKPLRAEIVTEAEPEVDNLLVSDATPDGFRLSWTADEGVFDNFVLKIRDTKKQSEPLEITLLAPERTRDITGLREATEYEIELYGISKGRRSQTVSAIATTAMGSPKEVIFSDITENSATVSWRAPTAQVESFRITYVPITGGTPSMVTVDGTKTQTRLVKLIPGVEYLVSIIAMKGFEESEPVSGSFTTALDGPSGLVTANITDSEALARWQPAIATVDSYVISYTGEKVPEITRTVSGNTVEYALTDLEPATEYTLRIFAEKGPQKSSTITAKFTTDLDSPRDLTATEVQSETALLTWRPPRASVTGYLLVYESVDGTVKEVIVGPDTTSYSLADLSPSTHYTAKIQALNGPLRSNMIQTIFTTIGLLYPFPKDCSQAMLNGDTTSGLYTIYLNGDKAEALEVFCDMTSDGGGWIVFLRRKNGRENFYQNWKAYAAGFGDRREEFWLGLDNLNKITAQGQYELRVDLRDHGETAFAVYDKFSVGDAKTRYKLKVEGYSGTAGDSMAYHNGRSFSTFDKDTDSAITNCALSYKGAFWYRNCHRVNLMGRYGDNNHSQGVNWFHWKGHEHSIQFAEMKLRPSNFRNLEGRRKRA

T3 sequence (P24821 23-2201): as above

F16-IL2: clinical-stage immunocytokine consisting of human IL-2 fused to the human antibody F16, specific to the A1 domain of tenascin-C
immunoreactivity (eluted counts / eluted + flow-through counts) (TNC-A1): 84%
accumulation in the tumour (subcutaneous U87 tumours): 2.3 % ID/g
tumour-to-blood ratio (subcutaneous U87 tumours): 11.5
sacrifice of the last mouse, day from tumour cell inoculation ([1]; Kaplan-Meier survival, cut-off tumour size 3,000 mm^3): 47 days
effect on tumour growth [1]: minor tumour growth retardation
localization of the immunocytokine within the tumour (s.c. U87 tumours): perivascular region and in the tumour extracellular matrix
weight loss ([2]; F16-IL2 20 μg i.v., five administrations): no weight loss

Cn1nnc2c(C(N)=O)ncn2c1=O [temozolomide, 8-carbamoyl-3-methylimidazo[5,1-d]-1,2,3,5-tetrazin-4(3H)-one]
mice in which tumours started growing again ([1]; by day 45): 3/5
effect on tumour growth [1]: virtually complete tumour regression
mice surviving over 3 months from the tumour cell injection ([1]; n=5 per group, combination group alive and tumour-free): two mice
day before which the other animals were sacrificed ([1]; tumour had reached the cut-off size): < 106 days
transient weight loss, nadir ([2]; after the fifth injection): 10%

B1: F16: human monoclonal antibody specific to the extra-domain A1 of tenascin C; used in biotinylated SIP format for immunohistochemistry (antibody, V domains shown)
VH: EVQLLESGGGLVQPGGSLRLSCAASGFTFSRYGASWVRQAPGKGLEWVSAISGSGGSTYYADSVKGRFTISRDNSKNTLYLQMNSLRAEDTAVYYCAKAHNAFDYWGQGTLVTVSR
VL: SSELTQDPAVSVALGQTVRITCQGDSLRSYYASWYQQKPGQAPVLVIYGKNNRPSGIPDRFSGSSSGNTASLTITGAQAEDEADYYCNSSVYTMPPVVFGGGTKLTVL
dissociation constant [3]: low nanomolar range
staining of tumour sections (A1 domain of tenascin-C): strongly stain both experimental U87 tumours and glioblastomas from patients

B2: improved variant of F16: 4A1-F16 having the Ala to Met mutation in VH CDR1, giving VH CDR1 SEQ ID NO: 18 (antibody, V domains shown)
VH: EVQLLESGGGLVQPGGSLRLSCAASGFTFSRYGMSWVRQAPGKGLEWVSAISGSGGSTYYADSVKGRFTISRDNSKNTLYLQMNSLRAEDTAVYYCAKAHNAFDYWGQGTLVTVSR
VL: SSELTQDPAVSVALGQTVRITCQGDSLRSYYASWYQQKPGQAPVLVIYGKNNRPSGIPDRFSGSSSGNTASLTITGAQAEDEADYYCNSSVYTMPPVVFGGGTKLTVL
binding affinity to tenascin-C (tenascin-C): retaining high affinity binding to tenascin-C
